The source of these data is paper PMC2680492 (The Journal of neuroscience : the official journal of the …, 2008).

Holding throughout (assay): pull-down
One assay concerns the target T1, His×6-HDAC6-FLAG (human, UniProt Q9UBN7 1-1215).
T1 sequence (looked up): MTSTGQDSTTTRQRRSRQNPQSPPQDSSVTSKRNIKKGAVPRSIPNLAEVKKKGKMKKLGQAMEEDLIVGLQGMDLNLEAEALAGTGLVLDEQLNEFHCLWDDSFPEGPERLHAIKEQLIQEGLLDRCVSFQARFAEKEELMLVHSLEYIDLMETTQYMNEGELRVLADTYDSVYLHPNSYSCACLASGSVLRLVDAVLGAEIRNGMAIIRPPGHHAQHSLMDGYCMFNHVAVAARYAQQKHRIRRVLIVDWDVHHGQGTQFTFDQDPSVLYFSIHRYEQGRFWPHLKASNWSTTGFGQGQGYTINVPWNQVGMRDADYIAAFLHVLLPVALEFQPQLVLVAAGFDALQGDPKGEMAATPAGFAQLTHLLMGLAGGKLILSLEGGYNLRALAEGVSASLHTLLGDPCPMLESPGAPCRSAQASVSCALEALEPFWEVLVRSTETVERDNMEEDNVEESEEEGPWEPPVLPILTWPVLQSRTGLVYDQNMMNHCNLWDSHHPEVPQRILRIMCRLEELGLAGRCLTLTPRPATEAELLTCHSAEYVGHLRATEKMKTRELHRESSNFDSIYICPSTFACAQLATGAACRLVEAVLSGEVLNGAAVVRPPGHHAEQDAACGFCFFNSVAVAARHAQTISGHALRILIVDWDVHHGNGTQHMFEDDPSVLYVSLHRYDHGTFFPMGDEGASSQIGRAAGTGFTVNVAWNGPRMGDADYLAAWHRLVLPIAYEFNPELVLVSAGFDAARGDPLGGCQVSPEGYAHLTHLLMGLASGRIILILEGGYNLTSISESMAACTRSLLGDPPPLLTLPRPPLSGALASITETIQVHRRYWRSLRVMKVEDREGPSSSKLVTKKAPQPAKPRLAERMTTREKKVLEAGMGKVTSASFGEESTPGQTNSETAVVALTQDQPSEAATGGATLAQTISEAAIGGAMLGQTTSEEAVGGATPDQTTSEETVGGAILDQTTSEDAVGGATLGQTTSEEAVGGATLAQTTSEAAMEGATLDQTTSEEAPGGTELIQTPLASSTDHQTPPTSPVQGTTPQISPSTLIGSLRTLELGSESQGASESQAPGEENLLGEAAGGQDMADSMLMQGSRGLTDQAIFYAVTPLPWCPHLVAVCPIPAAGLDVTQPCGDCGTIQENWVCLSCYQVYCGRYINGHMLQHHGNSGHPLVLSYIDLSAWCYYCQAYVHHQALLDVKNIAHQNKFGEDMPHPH

A further assay has as its target T2, His×6-DD1-FLAG (human, UniProt Q9UBN7 106-439).
T2 sequence (looked up): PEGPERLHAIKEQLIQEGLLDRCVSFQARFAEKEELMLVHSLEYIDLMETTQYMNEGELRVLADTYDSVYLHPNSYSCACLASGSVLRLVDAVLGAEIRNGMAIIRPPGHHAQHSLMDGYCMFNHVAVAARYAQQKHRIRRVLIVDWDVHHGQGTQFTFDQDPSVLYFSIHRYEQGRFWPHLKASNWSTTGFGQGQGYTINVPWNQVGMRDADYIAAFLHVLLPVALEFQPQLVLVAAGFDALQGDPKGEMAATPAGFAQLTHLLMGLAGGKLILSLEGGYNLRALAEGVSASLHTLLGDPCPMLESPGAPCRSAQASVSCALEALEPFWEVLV

For a further assay, the target named is T3, His×6-DD2-FLAG (human, UniProt Q9UBN7 440-840).
T3 sequence (looked up): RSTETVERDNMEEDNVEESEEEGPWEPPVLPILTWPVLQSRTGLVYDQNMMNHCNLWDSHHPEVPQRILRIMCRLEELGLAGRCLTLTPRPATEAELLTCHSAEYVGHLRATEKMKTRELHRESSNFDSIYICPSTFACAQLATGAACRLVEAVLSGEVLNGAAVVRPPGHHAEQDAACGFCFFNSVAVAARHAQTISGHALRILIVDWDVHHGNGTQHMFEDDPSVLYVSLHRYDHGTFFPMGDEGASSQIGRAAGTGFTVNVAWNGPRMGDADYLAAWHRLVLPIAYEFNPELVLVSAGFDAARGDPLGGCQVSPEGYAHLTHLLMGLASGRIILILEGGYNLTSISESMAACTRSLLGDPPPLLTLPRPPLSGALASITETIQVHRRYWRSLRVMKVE

B1: GST-tagged parkin RING1 domain (R1) (domain or fragment, human, UniProt O60260 217-310, looked up)
chain: TSDKETSVALHLIATNSRNITCITCTDVRSPVLVFQCNSRHVICLDCFHLYCVTRLNDRQFVHDPQLGYSLPCVAGCPNSLIKELHHFRILGEE
Take B1: the binding result in the assay with His×6-HDAC6-FLAG and with His×6-DD1-FLAG was “binds” throughout.

B2: GST-tagged parkin Linker domain (L) (domain or fragment, human, UniProt O60260 77-237, looked up)
chain: GQEMNATGGDDPRNAAGGCEREPQSLTRVDLSSSVLPGDSVGLAVILHTDSRKDSPPAGSPAGRSIYNSFYVYCKGPCQRVQPGKLRVQCSTCRQATLTLTQGPSCWDDVLIPNRMSGECQSPHCPGTSAEFFFKCGAHPTSDKETSVALHLIATNSRNIT
With B2, the binding result with His×6-HDAC6-FLAG and with His×6-DD1-FLAG was “binds” in each case.

B3: GST-tagged parkin RING2 domain (R2) (domain or fragment, human, UniProt O60260 395-465, looked up)
chain: ERAAEQARWEAASKETIKKTTKPCPRCHVPVEKNGGCMHMKCPQPQCRLEWCWNCGCEWNRVCMGDHWFDV
On to B3, for which the binding result in the assay with His×6-HDAC6-FLAG and with His×6-DD2-FLAG was “binds” throughout.
